From patent publication US20130177979A1 (UNIVERSITY OF CENTRAL FLORIDA RESEARCH FOUNDATION, published 2013)
Where no end group is shown, it is not given here. [ ]: non-standard residue; d: D form. pY = N[C@@H](Cc1ccc(OP(=O)(O)O)cc1)C(=O)O

T1: GpYVKPQ (pTyr peptide of Stat5)
T1 construct: SPR analyte; also called pY694Stat5; pY695Stat5
T1 peptide: G[pY]VKPQ

T2: PEpYINQS (pY1068 peptide of EGFR)
T2 construct: SPR analyte; also called pY1068EGFR
T2 peptide: PE[pY]INQS

T3: GpYIKTE (Stat1 pY701 peptide)
T3 construct: SPR analyte; also called pY701Stat1; Stat1 phosphopeptide
T3 peptide: G[pY]IKTE

T4: PpYLKTK (Stat3-derived pTyr705 peptide)
T4 construct: SPR analyte; also called pY705Stat3; Stat3 pY705 peptide
T4 peptide: P[pY]LKTK


How the values were obtained:
[1] = biological target: T1, GpYVKPQ (pTyr peptide of Stat5); assay: SPR (SensiQ); His-tagged full-length Stat3 immobilised on a HisCap sensor chip, GpYVKPQ passed over as analyte; sensorgram shown at 100 µM
[2] = biological target: T2, PEpYINQS (pY1068 peptide of EGFR); assay: SPR (SensiQ), His-tagged protein immobilised on HisCap chip, pTyr peptide as analyte
[3] = biological target: T1, GpYVKPQ (pTyr peptide of Stat5); assay: as above
[4] = biological target: T3, GpYIKTE (Stat1 pY701 peptide); assay: as above
[5] = biological target: T4, PpYLKTK (Stat3-derived pTyr705 peptide); assay: as above
[6] = biological target: T5, human epidermal growth factor receptor (EGFR) on cells (human, UniProt P00533 25-1210); assay: Fluorescence and confocal microscopy, fluorescently-labeled SPI and anti-EGFR immunostaining in MDA-MB-231 and NIH3T3/hEGFR cells
T5 construct: whole, on cells; SPI is said to associate with the pTyr motifs of the receptor's cytoplasmic tail inside cells; also called hEGFR; EGF receptor
From the text: Fluorescence imaging and immunofluorescence with laser-scanning confocal microscopy.

| Kd [1] [µM] | Kd [2] [µM] | Kd [3] [µM] | Kd [4] [µM] | Kd [5] [µM] | binding result [6] | Binder |
| --- | --- | --- | --- | --- | --- | --- |
| 1140 | 0.6 | 1200 | 4.4 | 0.9 |  | His-tagged Stat3 (full-length Stat3) (other) MAQWNQLQQLDTRYLKQLHQLYSDTFPMELRQFLAPWIESQDWAYAASKESHATLVFHNLLGEIDQQYSRFLQESNVLYQHNLRRIKQFLQSRYLEKPMEIARIVARCLWEESRLLQTAATAAQQGGQANHPTAAVVTEKQQMLEQHLQDVRKRVQDLEQKMKVVENLQDDFDFNYKTLKSQGDMQDLNGNNQSVTRQKMQQLEQMLTALDQMRRSIVSELAGLLSAMEYVQKTLTDEELADWKRRQQIACIGGPPNICLDRLENWITSLAESQLQTRQQIKKLEELQQKVSYKGDPIVQHRPMLEERIVELFRNLMKSAFVVERQPCMPMHPDRPLVIKTGVQFTTKVRLLVKFPELNYQLKIKVCIDKDSGDVAALRGSRKFNILGTNTKVMNMEESNNGSLSAEFKHLTLREQRCGNGGRANCDASLIVTEELHLITFETEVYHQGLKIDLETHSLPVVVISNICQMPNAWASILWYNMLTNNPKNVNFFTKPPIGTWDQVAEVLSWQFSSTTKRGLSIEQLTTLAEKLLGPGVNYSGCQITWAKFCKENMAGKGFSFWVWLDNIIDLVKKYILALWNEGYIMGFISKERERAILSTKPPGTFLLRFSESSKEGGVTFTWVEKDISGKTQIQSVEPYTKQQLNNMSFAEIIMGYKIMDATNILVSPLVYLYPDIPKEEAFGKYCRPESQEHPEADPGSAAPYLKTKFICVTPTTCSNTIDLPMSPRTLDSLMQFGNNGEGAEPSAGGQFESLTFDMDLTSECATSPM |
|  |  |  |  |  | binds | FISKERERAILSTKPPGTFLLRFSESSK (5-carboxyfluorescein attached to the amino-terminus, Used for cell uptake and colocalisation microscopy; also called fluorescently-labeled SPI) [5-carboxyfluorescein-labeled SPI] |
